Data on one substance can be found in publication PMC7308715.

The target in the test is N-ribosyltransferase from Archaeoglobus veneficus SNP6 (AvNRT) (Archaeoglobus veneficus SNP6). The test can be described thus: AUC; sedimentation velocity; 20 mM Tris-HCl, pH 8, 20 °C, 50,000 x g; profiles recorded at 292 nm; c(s) analysis with SEDFIT.

The substance “N-ribosyltransferase from Archaeoglobus veneficus SNP6 (AvNRT) (enzyme)” came in with a stoichiometry N of 4.
